Data on 16 molecules can be found in patent publication US20240270840A1 (NECTIN THERAPEUTICS, published 2024).

Assay [1] concerns the target T1, Human CD112R (PVRIG) (human, UniProt Q6DKI7 41-171, limits assumed).
T1 sequence (looked up): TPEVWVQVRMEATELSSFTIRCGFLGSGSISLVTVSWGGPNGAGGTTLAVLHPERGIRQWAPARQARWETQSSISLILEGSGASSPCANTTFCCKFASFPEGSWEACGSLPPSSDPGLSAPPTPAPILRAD
The experiment in a line: SPR (Biacore); purified full antibody; * limit of the Biacore instrument sensitivity.

Assay [2] deals with T1, Human CD112R (PVRIG). The experiment in a line: binding kinetics to human CD112R (Table 4; scFv variants by paragraph 288).
Assay [3] deals with T1, Human CD112R (PVRIG). The experiment in a line: SPR (Biacore); purified full antibody. (In general: SPR reads the build-up and loss of mass on a sensor chip optically.)

B1: VH0K1 N28T (antibody, V domains shown)
VH: QVQLQQPGAELVKPGTSVKLSCKASGYTFTSYWINWVKLRPGQGLEWIGDIYPGSYIPNYNEKFKNKATLTVDTSSSTAYMQLTSLASEDSALYYCAGGYFDVWGAGTTVTVSS
VL: DIVMTQSPDSLSVSLGERATINCKSSQSLLSSGNQKNYLAWYQQKPGQPPKLLIYGASTRESGVPDRFTGSGSGTDFTLTISSLQAEDVAVYYCQNDHSYPYTFGQGTKLEIK
One may read the Kd as a measure of binding affinity in units of concentration. A word on the koff: it is the rate constant with which the complex falls apart. High values mean fast dissociation, low ones slow dissociation. One may read the kon as the second-order rate constant of association. Regarding B1, in the assay with Human CD112R (PVRIG) [1], the dissociation constant Kd was 0.0259 nM, the “Relative Kd (against VH0K0 N28T)” value came out at 0.21, the koff was 8.3e-06 s⁻¹ and the kon is 320000 M⁻¹ s⁻¹.

B2: VH11K2 as tested in Table 4 (humanized scFv variant) (scFv, V domains shown)
VH: QVQLVQSGAEVKKPGSSVKVSCKASGYTFTSYWINWVRQAPGQGLEWIGDIYPGSYIPNYNEKFKNRATLTVDTSASTAYMELSSLRSEDTAVYYCAGGYFDVWGQGTTVTVSS
VL: DIVMTQSPDSLAVSLGERATINCKSSQSLLSSGNQKNYLAWYQQKPGQPPKLLIYGASTRESGVPDRFTGSGSGTDFTLTISSLQAEDVAVYYCQNDHSYPYTFGQGTKLEIK
notes: Format as for m33
Take B2: in the assay with Human CD112R (PVRIG) [2], the affinity, expressed as Kd, was 0.191 nM; the “Relative Kd (against VH0K0)” value turned out to be 0.62; the off-rate (koff) came to 0.000105 s⁻¹; the kon was determined as 552000 M⁻¹ s⁻¹.

B3: VH0K0 as tested in Table 4 (scFv of VH0K0) (scFv, V domains shown)
VH: QVQLQQPGAELVKPGTSVKLSCKASGYNFTSYWINWVKLRPGQGLEWIGDIYPGSYIPNYNEKFKNKATLTVDTSSSTAYMQLTSLASEDSALYYCAGGYFDVWGAGTTVTVSS
VL: DIVMTQSPSSLSVSAGEKVTMSCKSSQSLLSSGNQKNYLAWYQQKPGQPPKLLIYGASTRESGVPDRFTGSGSGTDFTLTISSVQAEDLAVYYCQNDHSYPYTFGGGTKLEIK
Regarding B3, in the assay with Human CD112R (PVRIG) [2], the Kd was determined as 0.307 nM, the “Relative Kd (against VH0K0)” value turned out to be 1, the off-rate (koff) stood at 8.89e-05 s⁻¹ and the kon was 290000 M⁻¹ s⁻¹.

B4: VH9K1 (antibody, V domains shown)
VH: QVQLVQSGAEVKKPGSSVKVSCKASGYTFTSYWINWVKLAPGQGLEWIGDIYPGSYIPNYNEKFKNRATLTVDTSASTAYMELSSLRSEDTAVYYCAGGYFDVWGQGTTVTVSS
VL: DIVMTQSPDSLSVSLGERATINCKSSQSLLSSGNQKNYLAWYQQKPGQPPKLLIYGASTRESGVPDRFTGSGSGTDFTLTISSLQAEDVAVYYCQNDHSYPYTFGQGTKLEIK
For the molecule B4, in the assay with Human CD112R (PVRIG) [3], the Kd was found to be 0.111 nM, the “Relative Kd (against VH0K0 N28T)” value was found to be 0.87, the koff came out at 3.87e-05 s⁻¹ and the kon stood at 350000 M⁻¹ s⁻¹.

B5: VH10K2 as tested in Table 4 (humanized scFv variant) (scFv, V domains shown)
VH: QVQLVQSGAEVKKPGSSVKVSCKASGYTFTSYWINWVRQAPGQGLEWIGDIYPGSYIPNYNEKFKNRATLTVDTSASTAYMELSSLASEDTALYYCAGGYFDVWGQGTTVTVSS
VL: DIVMTQSPDSLAVSLGERATINCKSSQSLLSSGNQKNYLAWYQQKPGQPPKLLIYGASTRESGVPDRFTGSGSGTDFTLTISSLQAEDVAVYYCQNDHSYPYTFGQGTKLEIK
On to B5, for which, in the assay with Human CD112R (PVRIG) [2], the Kd was 0.214 nM, the “Relative Kd (against VH0K0)” value was found to be 0.7, the koff was found to be 0.000133 s⁻¹ and the kon is 623000 M⁻¹ s⁻¹.

B6: VH10K1 (antibody, V domains shown)
VH: QVQLVQSGAEVKKPGSSVKVSCKASGYTFTSYWINWVRQAPGQGLEWIGDIYPGSYIPNYNEKFKNRATLTVDTSASTAYMELSSLASEDTALYYCAGGYFDVWGQGTTVTVSS
VL: DIVMTQSPDSLSVSLGERATINCKSSQSLLSSGNQKNYLAWYQQKPGQPPKLLIYGASTRESGVPDRFTGSGSGTDFTLTISSLQAEDVAVYYCQNDHSYPYTFGQGTKLEIK
Turning to B6, in the assay with Human CD112R (PVRIG) [3], the Kd turned out to be 0.119 nM, the “Relative Kd (against VH0K0 N28T)” value came out at 0.94, the koff is 4.18e-05 s⁻¹ and the on-rate (kon) was determined as 351000 M⁻¹ s⁻¹.

B7: VH11K0 (antibody, V domains shown)
VH: QVQLVQSGAEVKKPGSSVKVSCKASGYTFTSYWINWVRQAPGQGLEWIGDIYPGSYIPNYNEKFKNRATLTVDTSASTAYMELSSLRSEDTAVYYCAGGYFDVWGQGTTVTVSS
VL: DIVMTQSPSSLSVSAGEKVTMSCKSSQSLLSSGNQKNYLAWYQQKPGQPPKLLIYGASTRESGVPDRFTGSGSGTDFTLTISSVQAEDLAVYYCQNDHSYPYTFGGGTKLEIK
On to B7, for which, in the assay with Human CD112R (PVRIG) [3], binding was characterised by a dissociation constant (Kd) of 0.101 nM, the “Relative Kd (against VH0K0 N28T)” value was determined as 0.8, the koff came to 3.19e-05 s⁻¹ and the kon came out at 316000 M⁻¹ s⁻¹.

B8: VH11K1 as tested in Table 4 (humanized scFv variant) (scFv, V domains shown)
VH: QVQLVQSGAEVKKPGSSVKVSCKASGYTFTSYWINWVRQAPGQGLEWIGDIYPGSYIPNYNEKFKNRATLTVDTSASTAYMELSSLRSEDTAVYYCAGGYFDVWGQGTTVTVSS
VL: DIVMTQSPDSLSVSLGERATINCKSSQSLLSSGNQKNYLAWYQQKPGQPPKLLIYGASTRESGVPDRFTGSGSGTDFTLTISSLQAEDVAVYYCQNDHSYPYTFGQGTKLEIK
notes: Format as for m33
Take B8: in the assay with Human CD112R (PVRIG) [2], the Kd was 0.165 nM, the “Relative Kd (against VH0K0)” value is 0.54, the koff is 0.000101 s⁻¹ and the kon was found to be 630000 M⁻¹ s⁻¹.

B9: VH9K3 (antibody, V domains shown)
VH: QVQLVQSGAEVKKPGSSVKVSCKASGYTFTSYWINWVKLAPGQGLEWIGDIYPGSYIPNYNEKFKNRATLTVDTSASTAYMELSSLRSEDTAVYYCAGGYFDVWGQGTTVTVSS
VL: DIVMTQSPDSLAVSLGERATINCKSSQSLLSSGNQKNYLAWYQQKPGQPPKLLIYGASTRESGVPDRFSGSGSGTDFTLTISSLQAEDVAVYYCQNDHSYPYTFGQGTKLEIK
On to B9, for which, in the assay with Human CD112R (PVRIG) [3], the equilibrium dissociation constant (Kd) was about 0.154 nM, the “Relative Kd (against VH0K0 N28T)” value is 1.22, the dissociation rate constant (koff) is 1.06e-05 s⁻¹ and the on-rate constant (kon) was found to be 330000 M⁻¹ s⁻¹.

B10: VH10K0 (antibody, V domains shown)
VH: QVQLVQSGAEVKKPGSSVKVSCKASGYTFTSYWINWVRQAPGQGLEWIGDIYPGSYIPNYNEKFKNRATLTVDTSASTAYMELSSLASEDTALYYCAGGYFDVWGQGTTVTVSS
VL: DIVMTQSPSSLSVSAGEKVTMSCKSSQSLLSSGNQKNYLAWYQQKPGQPPKLLIYGASTRESGVPDRFTGSGSGTDFTLTISSVQAEDLAVYYCQNDHSYPYTFGGGTKLEIK
For the molecule B10, in the assay with Human CD112R (PVRIG) [3], binding was put at a Kd of 0.135 nM, the “Relative Kd (against VH0K0 N28T)” value is 1.07, the off-rate (koff) worked out at 4.66e-05 s⁻¹ and the kon worked out at 345000 M⁻¹ s⁻¹.

B11: VH0K2 N28T (antibody, V domains shown)
VH: QVQLQQPGAELVKPGTSVKLSCKASGYTFTSYWINWVKLRPGQGLEWIGDIYPGSYIPNYNEKFKNKATLTVDTSSSTAYMQLTSLASEDSALYYCAGGYFDVWGAGTTVTVSS
VL: DIVMTQSPDSLAVSLGERATINCKSSQSLLSSGNQKNYLAWYQQKPGQPPKLLIYGASTRESGVPDRFTGSGSGTDFTLTISSLQAEDVAVYYCQNDHSYPYTFGQGTKLEIK
In the case of B11, in the assay with Human CD112R (PVRIG) [3], binding was characterised by a dissociation constant (Kd) of 0.109 nM, the “Relative Kd (against VH0K0 N28T)” value was 0.87, the dissociation rate constant (koff) worked out at 4.34e-05 s⁻¹ and the on-rate constant (kon) was 398000 M⁻¹ s⁻¹.

B12: VH9K2 (antibody, V domains shown)
VH: QVQLVQSGAEVKKPGSSVKVSCKASGYTFTSYWINWVKLAPGQGLEWIGDIYPGSYIPNYNEKFKNRATLTVDTSASTAYMELSSLRSEDTAVYYCAGGYFDVWGQGTTVTVSS
VL: DIVMTQSPDSLAVSLGERATINCKSSQSLLSSGNQKNYLAWYQQKPGQPPKLLIYGASTRESGVPDRFTGSGSGTDFTLTISSLQAEDVAVYYCQNDHSYPYTFGQGTKLEIK
B12: in the assay with Human CD112R (PVRIG) [1], binding was characterised by a dissociation constant (Kd) of 0.0432 nM, the “Relative Kd (against VH0K0 N28T)” value was found to be 0.34, the koff amounted to 1.3e-05 s⁻¹ and the kon is 301000 M⁻¹ s⁻¹.

B13: VH0K3 N28T (antibody, V domains shown)
VH: QVQLQQPGAELVKPGTSVKLSCKASGYTFTSYWINWVKLRPGQGLEWIGDIYPGSYIPNYNEKFKNKATLTVDTSSSTAYMQLTSLASEDSALYYCAGGYFDVWGAGTTVTVSS
VL: DIVMTQSPDSLAVSLGERATINCKSSQSLLSSGNQKNYLAWYQQKPGQPPKLLIYGASTRESGVPDRFSGSGSGTDFTLTISSLQAEDVAVYYCQNDHSYPYTFGQGTKLEIK
B13: in the assay with Human CD112R (PVRIG) [1], the equilibrium dissociation constant (Kd) came to 0.0321 nM, the “Relative Kd (against VH0K0 N28T)” value was found to be 0.25, the off-rate (koff) came out at 1.06e-05 s⁻¹ and the kon was 330000 M⁻¹ s⁻¹.

B14: VH9K0 (antibody, V domains shown)
VH: QVQLVQSGAEVKKPGSSVKVSCKASGYTFTSYWINWVKLAPGQGLEWIGDIYPGSYIPNYNEKFKNRATLTVDTSASTAYMELSSLRSEDTAVYYCAGGYFDVWGQGTTVTVSS
VL: DIVMTQSPSSLSVSAGEKVTMSCKSSQSLLSSGNQKNYLAWYQQKPGQPPKLLIYGASTRESGVPDRFTGSGSGTDFTLTISSVQAEDLAVYYCQNDHSYPYTFGGGTKLEIK
Take B14: in the assay with Human CD112R (PVRIG) [1], binding was put at a Kd of 0.0103 nM, the “Relative Kd (against VH0K0 N28T)” value worked out at 0.08, the dissociation rate constant (koff) was found to be 3.09e-06 s⁻¹ and the kon turned out to be 300000 M⁻¹ s⁻¹.

B15: VH10K3 as tested in Table 4 (humanized scFv variant) (scFv, V domains shown)
VH: QVQLVQSGAEVKKPGSSVKVSCKASGYTFTSYWINWVRQAPGQGLEWIGDIYPGSYIPNYNEKFKNRATLTVDTSASTAYMELSSLASEDTALYYCAGGYFDVWGQGTTVTVSS
VL: DIVMTQSPDSLAVSLGERATINCKSSQSLLSSGNQKNYLAWYQQKPGQPPKLLIYGASTRESGVPDRFSGSGSGTDFTLTISSLQAEDVAVYYCQNDHSYPYTFGQGTKLEIK
notes: Format as for m33
With B15, in the assay with Human CD112R (PVRIG) [2], the dissociation constant (Kd) was 0.197 nM, the “Relative Kd (against VH0K0)” value was determined as 0.64, the koff was 0.000107 s⁻¹ and the kon was 545000 M⁻¹ s⁻¹.

B16: VH11K3 as tested in Table 4 (humanized scFv variant) (scFv, V domains shown)
VH: QVQLVQSGAEVKKPGSSVKVSCKASGYTFTSYWINWVRQAPGQGLEWIGDIYPGSYIPNYNEKFKNRATLTVDTSASTAYMELSSLRSEDTAVYYCAGGYFDVWGQGTTVTVSS
VL: DIVMTQSPDSLAVSLGERATINCKSSQSLLSSGNQKNYLAWYQQKPGQPPKLLIYGASTRESGVPDRFSGSGSGTDFTLTISSLQAEDVAVYYCQNDHSYPYTFGQGTKLEIK
notes: Format as for m33
As for B16, in the assay with Human CD112R (PVRIG) [2], binding was characterised by a dissociation constant (Kd) of 0.19 nM, the “Relative Kd (against VH0K0)” value came out at 0.62, the off-rate (koff) is 0.000101 s⁻¹ and the kon was found to be 530000 M⁻¹ s⁻¹.
